According to publication PMC4364448:

Target: Arp2/3 complex (bovine) (UniProt A7MB62)
Experiment: ITC

Kd site-1	Kd site-2	stoichiometry N	fold lower affinity than N-WASP WCA, site-1	fold lower affinity than N-WASP WCA, site-2	Kd	Substance
20 nM	182 nM	2				WCA_(N-WASP) (domain or fragment)
		2	2 fold	6 fold		WCA_(WAVE) (domain or fragment)
					200 nM	Human GMFγ (from UniProt O60234 1-142) (natural protein)
